Target: T1, human C-terminal HPC-4 epitope-tagged C1β3Gal-T (core 1 β3-galactosyltransferase), full-length (human, UniProt Q9NS00 1-363)
T1 construct: mature; also called HPC4-tagged C1β3Gal-T; recombinant C1β3Gal-T
Test: Ni-NTA capture of His6-tagged wtCosmc-1 from Hi-5 and 293T cell extracts, C1β3Gal-T activity on the beads
Description: Capture of Human Cosmc-1 on Ni-NTA-Superflow-The Ni-NTA-Superflow beads (100 ml) (Qiagen, Inc.) equilibrated with the Ni-NTA washing buffer containing 50 mM NaH₂PO₄, 300 mM NaCl, 20 mM imidazole, 0.1% Triton X-100 (pH 7.8) were incubated with the cell extracts overnight at 4° C. on a rotator. The beads were washed 5 times with 1 ml of the washing buffer. One portion of the beads was removed for C1β3Gal-T enzyme assay. The bound material in the other portion was eluted with 100 ml of eluting solution (50 mM NaH₂PO₄, 300 mM NaCl, 250 mM imidazole, and 0.1% Triton X-100).
To confirm that Cosmc-1 and C1β3Gal-T can associate, we performed Western Blots on the HPC4-tagged C1β3Gal-T expressed in Hi5 cells and 293T cells with or without His₆-tagged wtCosmc-1 or mCosmc-1. When HPC4-tagged C1β3Gal-T was expressed in Hi5 cells in the absence or presence of wtCosmc-1 or mCosmc-1, a considerable amount protein was generated (FIG. 2G), but the enzyme lacked activity except when co-expressed with wtCosmc-1 (FIG. 2A-C). More importantly, HPC4-tagged C1β3Gal-T was present with His₆-tagged wtCosmc-1 when the latter was captured on Ni-NTA (FIGS. 2G,H). […] There was a slight amount of HPC4-tagged C1β3Gal-T detected in the Ni-NTA bound material in the absence of His₆-tagged wtCosmc-1 in 293T cells (FIG. 2H). […]

T1 sequence (Q9NS00 other isoform, or with tags, fused parts or gaps): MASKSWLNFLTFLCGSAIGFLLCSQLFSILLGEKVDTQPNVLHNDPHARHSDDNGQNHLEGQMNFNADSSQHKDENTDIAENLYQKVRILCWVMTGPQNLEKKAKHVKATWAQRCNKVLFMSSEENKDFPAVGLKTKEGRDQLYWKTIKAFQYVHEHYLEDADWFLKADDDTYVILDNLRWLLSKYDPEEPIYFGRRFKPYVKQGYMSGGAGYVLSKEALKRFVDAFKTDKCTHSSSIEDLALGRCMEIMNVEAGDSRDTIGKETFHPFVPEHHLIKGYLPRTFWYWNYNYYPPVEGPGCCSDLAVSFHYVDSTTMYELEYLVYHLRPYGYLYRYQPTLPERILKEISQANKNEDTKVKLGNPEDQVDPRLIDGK

binding result: binds
B1: human C-terminal His6-tagged Cosmc-1 (wild-type; Core 1 β3-Gal-T Specific Molecular Chaperone-1) (other)
chain: MLSESSSFLKGVMLGSIFCALITMLGHIRIGHGNRMHHHEHHHLQAPNKEDILKISEDERMELSKSFRVYCIILVKPKDVSLWAAVKETWTKHCDKAEFFSSENVKVFESINMDTNDMWLMMRKAYKYAFDKYRDQYNWFFLARPTTFAIIENLKYFLLKKDPSQPFYLGHTIKSGDLEYVGMEGGIVLSVESMKRLNSLLNIPEKCPEQGGMIWKISEDKQLAVCLKYAGVFAENAEDADGKDVFNTKSVGLSIKEAMTYHPNQVVEGCCSDMAVTFNGLTPNQMHVMMYGVYRLRAFGHIFNDALVFLPPNGSDNDHHHHHH
notes: Co-expressed with C1β3Gal-T in Hi-5 insect cells or 293T cells and captured from Triton X-100 cell extracts on Ni-NTA; also called wtCosmc-1; wt-Cosmc-1

Source: patent publication US20050037477A1 (BOARD OF REGENTS OF THE UNIVERSITY OF OKLAHOMA, published 2005)
